Data from the supplement of paper PMC7125110.
± gives the standard error. This sample holds only a part of the variants without activity.

B1: glmS ribozyme (parent)
chain: AUAAAAGCGCCAGAACUACAGAAAUGUAGUUGACGAGGAGGAGGUUUAUCGAAUUUUCGGCGGAUGCCUCCAAA

How the values were obtained:
Conditions in all cases: with glucosamine-6-phosphate
[1] = variants of: B1; test: self-cleavage kobs at 640 uM GlcN6P; higher = faster cleavage; RNA array
Summary of the method: (§1)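 Glucosamine-6-phosphate, from 40 μM to 10 mM in HEPES/KCl/Mg(OAc)2 buffer, was flowed over sequenced MiSeq chips carrying barcoded ribozyme variants transcribed in situ by E. coli RNA polymerase. A hybridised Cy3 probe tracked the variants at 37 °C as tiles were imaged over ~14 h. kobs, kcat and KM were obtained by fitting normalised per-tile medians to exponential decays and then applying weighted Michaelis–Menten fits across concentrations.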

[2] = variants of: B1; test: self-cleavage kobs at 2500 uM GlcN6P; higher = faster cleavage; RNA array
Summary of the method: as §1

[3] = variants of: B1; test: self-cleavage kobs at 10000 uM GlcN6P; higher = faster cleavage; RNA array
Summary of the method: as §1

Variant | self-cleavage kobs at 640 uM GlcN6P [1] [s⁻¹] | self-cleavage kobs at 2500 uM GlcN6P [2] [s⁻¹] | self-cleavage kobs at 10000 uM GlcN6P [3] [s⁻¹]
G13U G66C U69G | 7.62e-05 ± 2.3e-05 |  | 
G29U A33C G41A U49C G60A U65C | < 1e-05 |  | 
G32C G35A A36U U47G U56G | < 1e-05 | < 1e-05 | 
A12U G40C C61A | < 1e-05 |  | 
A12C G66U C70G | 7.67e-05 ± 2.5e-05 |  | 
U49C C50A C70A | 7.42e-05 ± 3.6e-05 |  | 
A33G A39C G44A C71G | < 1e-05 | < 1e-05 | 
A6C A12U G51U U54G | < 1e-05 | < 1e-05 | 
A6C C16A U31C | < 1e-05 | < 1e-05 | 
C11U A15U U57G C58U C67U | 0.00016 ± 4e-05 | 0.000131 ± 4.9e-05 | 
G9C A15C A53U | < 1e-05 |  | 
A6U C50A G60A C70A | 0.000136 ± 5e-05 |  | 
G29C G40A U65G | < 1e-05 |  | 
U31A A42U U57A A64G C71A | < 1e-05 |  | 
C11A U30C G38U | < 1e-05 | < 1e-05 | 
A15C G38U C58A | < 1e-05 |  | 
U65A G66A C71U | 0.000198 ± 4.2e-05 | 0.000397 ± 0.0001 | 

Variant | self-cleavage kobs at 640 uM GlcN6P [1] [s⁻¹] | self-cleavage kobs at 2500 uM GlcN6P [2] [s⁻¹] | self-cleavage kobs at 10000 uM GlcN6P [3] [s⁻¹]
G38A G44U G62U | < 1e-05 | < 1e-05 | 
U54A C67U C68A | 6.98e-05 ± 2.2e-05 |  | 
A33U C50G G51A | < 1e-05 |  | 
G29C U56A C67G | 4.47e-05 ± 2.1e-05 | 7.09e-05 ± 2e-05 | 
G44U A48U A64G C67G | 0.000188 ± 7.9e-05 | 0.000485 ± 0.00017 | 
C34A G41A | < 1e-05 | < 1e-05 | 
G9U U54C | < 1e-05 |  | 
C8U C58A U65C | < 1e-05 | < 1e-05 | 
G13A C16A C68G | 7.67e-05 ± 3.7e-05 |  | 
U30G A42G G66A C71A | 0.00018 ± 5.9e-05 | 0.000159 ± 4.2e-05 | 
A33C G43U G63U | < 1e-05 | < 1e-05 | < 1e-05
U31C G32A U55A | 0.000149 ± 2.6e-05 | 0.000644 ± 0.00017 | 
A33C A48C C71A | < 1e-05 | < 1e-05 | 
U57G C67A U69G | 4.87e-05 ± 2.3e-05 |  | 
A15C U30A U31G C34G C67G | 5.05e-05 ± 2.3e-05 |  | 
A12G A15U U45C G59A | < 1e-05 | < 1e-05 | 
A33U G44U U46G | < 1e-05 | < 1e-05 | 
